Columns and labels:
[1] = test system: acetyl-P-L-G-Hof-Orn-L-Dox
[2] = test system: succinyl-P-L-G-Hof-Y-L-Dox

MMP-9
kcat/Km (cleavage of conjugate, HPLC) (acetyl-G-P-L-G-L-A-L-Dox): 1.9e+07 M⁻¹ s⁻¹ | kcat/Km (cleavage of conjugate, HPLC) (acetyl-G-P-L-G-L-L-Dox): 9.5e+07 M⁻¹ s⁻¹ | kcat/Km (cleavage of conjugate, HPLC) (acetyl-G-P-L-G-L-Y-Dox): 1.1e+08 M⁻¹ s⁻¹ | kcat/Km (cleavage of conjugate, HPLC) [1]: 2.6e+07 M⁻¹ s⁻¹ | kcat/Km (cleavage of conjugate, HPLC) (acetyl-P-L-G-Hof-Y-L-Dox): 3.4e+07 M⁻¹ s⁻¹ | kcat/Km (cleavage of conjugate, HPLC) (acetyl-P-L-G-L-A-A-L-Dox): 1.65e+08 M⁻¹ s⁻¹ | kcat/Km (cleavage of conjugate, HPLC) (acetyl-P-L-G-L-A-L-Dox): 2.4e+07 M⁻¹ s⁻¹ | kcat/Km (cleavage of conjugate, HPLC) (acetyl-P-L-G-L-L-A-L-Dox): 1.3e+08 M⁻¹ s⁻¹ | kcat/Km (cleavage of conjugate, HPLC) (acetyl-P-L-G-L-L-Dox): 1.3e+08 M⁻¹ s⁻¹ | kcat/Km (cleavage of conjugate, HPLC) (acetyl-P-L-G-L-L-S-L-Dox): 1.49e+08 M⁻¹ s⁻¹ | kcat/Km (cleavage of conjugate, HPLC) (acetyl-P-L-G-L-Y-A-L-Dox): 2.96e+08 M⁻¹ s⁻¹ | kcat/Km (cleavage of conjugate, HPLC) (acetyl-P-L-G-L-Y-L-Dox): 3.9e+08 M⁻¹ s⁻¹ | kcat/Km (cleavage of conjugate, HPLC) [2]: > 1.2e+08 M⁻¹ s⁻¹

— patent US20020103133
